Results as given in PMC8495455, “Discovery of a transdermally deliverable pentapeptide for activating AdipoR1 to promote hair growth” (EMBO Molecular Medicine, 2021).

B1: GST-fused P5 (GLYYF) [human] / Flag-fused N-terminal-truncated AdipoR1 (residues 89-375) [human] (parent complex)
chain 1: GLYYF
chain 2: EGRWRVIPYDVLPDWLKDNDYLLHGHRPPMPSFRACFKSIFRIHTETGNIWTHLLGFVLFLFLGILTMLRPNMYFMAPLQEKVVFGMFFLGAVLCLSFSWLFHTVYCHSEKVSRTFSKLDYSGIALLIMGSFVPWLYYSFYCSPQPRLIYLSIVCVLGISAIIVAQWDRFATPKHRQTRAGVFLGLGLSGVVPTMHFTIAEGFVKATTVGQMGWFFLMAVMYITGAGLYAARIPERFFPGKFDIWFQSHQIFHVLVVAAAFVHFYGVSNLQEFRYGLEGGCTDDTLL
B2: Flag-fused N-terminal-truncated AdipoR1 (residues 89-375) [human] / GST-fused P5 (GLYYF) [human] (parent complex)
chain 1: B1 chain 2
chain 2: GLYYF

Variants of: B1
Test: GST pulldown; n = 3 technical replicates/group; parent: 1; read off a plot

| Variant | ratio to parent |
| --- | --- |
| chain 1 Y4A | ~0.12 |
| chain 1 Y4D | ~0.13 |

Variants of: B2
Test: as above

| Variant | ratio to parent |
| --- | --- |
| chain 1 F197A, chain 1 R274A | ~0.75 |
| chain 1 F197E, chain 1 E201A | ~0.45 |
| chain 1 F197E, chain 1 F273A | ~0.72 |

Variants of: B2
Test: as above
Remark: another data set of the same source

| Variant | ratio to parent |
| --- | --- |
| chain 1 Y141A | ~1 |
| chain 1 Y137A | ~0.77 |
| chain 1 Y138A | ~0.65 |

Variants of: B2
Test: as above
Remark: another data set of the same source

| Variant | ratio to parent |
| --- | --- |
| chain 1 F197E | ~0.3 |
| chain 1 F197A | ~0.57 |
| chain 1 F273A | ~0.73 |
| chain 1 R274A | ~0.83 |
